Test results from publication PMC9887155 (2023).
Ends that are not written are not given here.

Legend:
[1] = target: T1, Gtα/Giα with a C-terminus truncated by six amino acids (European robin (Erithacus rubecula)); experiment: SPR; two-state reaction model, first step (kd1/ka1)
[2] = target: T1, Gtα/Giα with a C-terminus truncated by …; experiment: SPR; two-state reaction model, kd1

CGAGAWERWFVVCKPFGNIKFDGK-NH2 (cysteine pairing not given here) [peptide LWO2 (second cytoplasmic loop of long-wavelength-sensitive opsin of European robin)]
Kd [1]: 933 nM
koff [2]: 0.00434 s⁻¹
